Reference: publication doi:10.1101/2023.07.16.549178

Target: F-actin (UniProt P68135)
Assay: cryoEM (raw images and 2D image averages); full-length myosin-5a with F-actin free in solution, flash frozen in the presence of ATP, low calcium concentration, no cargo adaptor molecules; 1 myosin molecule per 2.5 actin subunits

full-length myosin-5a (from UniProt Q99104 1-1853; P0DP26 1-149) (complex)
percent of myosin molecules attached (from counts per um actin): < 10% | percent of observed myosin molecules attached by both heads to one actin filament: 55%
